Legend:
[1] = molecular target: Kluyveromyces lactis glucokinase (KlGlk1) (Kluyveromyces lactis) (UniProt Q6CUZ3); assay: SEC-MALS; size-exclusion chromatography (Superdex 200 Increase 10/300 GL) coupled to right-angle/low-angle light scattering (RALS/LALS) and refractive index, OMNISEC REVEAL; 50 mM Tris pH 7.8, 200 mM NaCl, 5 mM beta-ME
[2] = substrate: Nc1ncnc2c1ncn2[C@@H]1O[C@H](COP(=O)(O)OP(=O)(O)OP(=O)(O)O)[C@@H](O)[C@H]1O; assay: G6PD-coupled assay, fit over ATP range preceding substrate inhibition; format: biochemical, Kluyveromyces lactis; conditions: 0.5 mM glucose, 5 mM MgCl2, 50 mM KCl, 250 mM sucrose, 20 mM Tris-HCl pH 7.4, 37 °C, Hill coefficient 1.97 at low ATP, substrate inhibition from 0.25 mM ATP

With “Kluyveromyces lactis glucokinase (KlGlk1) (from UniProt Q6CUZ3 49-481) (enzyme)” the stoichiometry N [1] was 2.

B1: KlGlk1 (Kluyveromyces lactis NRRL Y-1140) (protein)
chain: SDPKLTKAVDSICDQFIVTKSKISQLTEYFIDCMEKGLEPCESDISQNKGLPMIPTFVTDKPSGQEHGVTMLAADLGGTNFRVCSVELLGNHEFKIEQEKSKIPTFFFQDDHHVTSKDLFQHMALITHQFLTKHHKDVIQDYKWKMGFTFSYPVDQTSLSSGKLIRWTKGFKIGDTVGQDVVQLFQQELNDIGLSNVHVVALTNDTTGTLLARCYASSDAARAINEPVIGCIFGTGTNGCYMEKLENIHKLDPASREELLSQGKTHMCINTEWGSFDNELNHLPTTSYDIKIDQQFSTNPGFHLFEKRVSGLYLGEILRNILLDLEKQELFDLKESVLKNNPFILTTETLSHIEIDTVENDLQDTRDALLKAADLETTFEERVLIQKLVRAISRRAAFLAAVPIAAILIKTNALNQSYHCQVEVGCDGSVVEHYPGFRSMMRHALALSPIGPEGERDVHLRISKDGSGVGAALCALHANY
notes: codon-optimized synthetic gene in pET24d, E. coli BL21 (DE3); N-terminal His-tag removed with TEV protease; dimer in solution (100 kDa apparent); crystal model residues 2-481
Molecule B1 has a Km [2] of 150 µM and a kcat [2] of 400 s⁻¹.

Source: publication PMC6801647, “Crystal Structure of Kluyveromyces lactis Glucokinase (KlGlk1)” (International Journal of Molecular Sciences, 2019)
